Test results as given in patent US20250361298A1 (CARTOGRAPHY BIOSCIENCES, published 2025).

T1: Cynomolgus LY6G6D ectodomain fused to mouse IgG2A Fc (monovalent display, knob-in-hole) (cynomolgus, UniProt O95868 20-104 (human entry))
T1 construct: Same design as the human construct; Tags are not described; also called cyno LY6G6D-mouse Fc fusion antigen; cynomolgus monkey LY6G6D
T1 chain: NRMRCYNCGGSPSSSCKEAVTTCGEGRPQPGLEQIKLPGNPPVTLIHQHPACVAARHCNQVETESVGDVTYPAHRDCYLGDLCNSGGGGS

T2: Human LY6G6D ectodomain fused to mouse IgG2A Fc (monovalent display, knob-in-hole) (human, biotinylated for BLI capture (site not stated))
T2 chain: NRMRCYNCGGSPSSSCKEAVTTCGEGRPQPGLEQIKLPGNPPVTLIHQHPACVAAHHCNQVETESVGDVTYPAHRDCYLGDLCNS

B1: CB21-499-177 (antibody, V domains shown)
VH: EVQLVESGGGVVQPGRSLRLSCAASGFTFSSYGMHWVRQAPGKGLEWVAVIWYDASNKEYAPSVKGRFTISRDNSKNTLYLQMNSLRAEDTAIYYCARPGEGDYWGQGTLVTVSS
VL: DIQMTQSPSSLSASVGDRVTITCRASQGVRNDFGWFQQKPGKAPKRLIYGASSLQSGVPSRFSGSGSGTEFTLTISSLQPEDFATYYCLQQNSYPWTFGQGTKLEIK
B2: CB21-498-142 (antibody, V domains shown)
VH: EVQLVESGGGLVQPGGSLRLSCAASGFTFSSYAMNWVRQAPGKGLEGVSGISGSGGRIYYAESVKGRFQISRDNSKSTFYLQMNSLRAEDTAVYYCAKDLDVWGKGTTVTVSS
VL: DVVMTQTPLSSPVTLGQSASISCRSSQSLVHSDANTYLNWLHQRPGQPPRLLIYKISNRFSGVPDRFSGSGSGTDFTLKISRVEAEDVGVYYCMQATQFPLTFGGGTKLEIK

Legend:
[1] = biological target: T1, Cynomolgus LY6G6D ectodomain fused to …; experiment: SPR, Biacore 8K+, cyno LY6G6D-mouse Fc captured by anti-mouse antibody on CM5, antibody as analyte 50-0.7813 nM, 25 C
Experimental: (§1) SPR multipoint kinetic analyses against human and cynomolgus monkey LY6G6D was also performed. LY6G6D binding kinetics were performed via surface plasmon resonance (SPR) on a Biacore 8K+. A Mouse Antibody Capture Kit, type 2 (Cytiva 29215281) was used for amine coupling to a CM5 sensor chip (BR100530) and the immobilization was performed exactly according to the manufacturer's standard settings. To begin an SPR run, 7 startup cycles were run following chip immobilization to establish sensor stability. In these, LY6G6D-mouse Fc fusion antigen was first flowed into just flow cell 2 at 10 uL/min at a 5 nM concentration with a 120 sec contact time. 1×HBS-EP+ buffer, pH 7.6 was then flowed at 30 μL/min with a 420 sec contact time into the chip. Finally regeneration solution (10 mM Glycine-HCl pH 1.7) was flowed at 30 uL/min with a 120 sec contact time.
(§2) After this point, 16 analysis cycles were run, 8 first with human LY6G6D-mouse Fc fusion antigen and 8 next for cyno LY6G6D-mouse Fc fusion antigen. In both antigen formats, the antigen was captured at 10 uL/min at a 5 nM concentration diluted into 1×HBS-EP+ buffer, pH 7.6 with a 120 sec contact time. Next, selected antibodies diluted into 1×HBS-EP+ buffer, pH 7.6 were run as the analytes across a 7-point dilution series, 50 nM to 0.7813 nM with two-fold dilutions. A contact time of 300 sec followed by dissociation time of 1200 sec at a flow rate of 30 μL/min was used. Regeneration solution (10 mM Glycine-HCl pH 1.7) was flowed at 30 μL/min with a 120 sec contact time. Finally, a wait step of 60 sec with flow rate of 30 μL/min 1×HBS-EP+ buffer, pH 7.6 was used to re-establish sensor stability. These SPR binding studies were performed at 25° C.

[2] = biological target: T2, Human LY6G6D ectodomain fused to mouse …; experiment: SPR, Biacore 8K+, LY6G6D-mouse Fc captured by anti-mouse antibody on CM5, antibody as analyte 50-0.7813 nM, 25 C
Experimental: as §1, §2

Binder	Kd [1] [nM]	koff [1] [s⁻¹]	kon [1] [M⁻¹ s⁻¹]	Kd [2] [nM]	koff [2] [s⁻¹]	kon [2] [M⁻¹ s⁻¹]
B1	0.9	0.000149	166000	0.385	7.12e-05	185000
B2	5.57	0.000448	80500	3.2	0.00031	96700
